Reference: US6353097

The substances below were run against rat FcεRI (α, β and γ subunits) on CHO-B12 cells (UniProt P12371) (assay: not given).
In the case of “full length, catalytically inactive Lyn B kinase (Lys279 to Arg), rat, expressed in CHO-B12 cells”, the “antigen-induced phosphorylation of receptor tyrosines” value is reported as 20-75% less antigen-induced phosphorylation of receptor tyrosines than cells transfected with the vector alone.

The substances below were run against C-terminal (201-243) cytoplasmic domain of the rat FcεRIβ, Gal 4 DNA binding domain fusion protein (pAS2-1-βC) (rat) (assay: yeast two-hybrid, liquid β-galactosidase assay, strain Y187).
With “full length Lyn B, Gal 4-activation domain-kinase fusion protein (from UniProt P04386 768-881) (enzyme)” the LacZ reporter (β-galactosidase) activity, fold over the negative control pACT-27-66-OOF was 3 fold and the strength of the interaction by β-galactosidase activity, relative to p53 and SV40 was 1 per cent. “full length Lyn A, Gal 4-activation domain-kinase fusion protein (from UniProt P04386 768-881) (enzyme)” showed a LacZ reporter (β-galactosidase) activity, fold over the negative control pACT-27-66-OOF of 3 fold and a strength of the interaction by β-galactosidase activity, relative to p53 and SV40 of 1 per cent. “unique domain of Lyn B (amino acids 1-45), Gal 4-activation domain fusion protein (from UniProt Q07014 1-66)” gave a LacZ reporter (β-galactosidase) activity, fold over the negative control pACT-27-66-OOF of 3 fold and a strength of the interaction by β-galactosidase activity, relative to p53 and SV40 of 1 per cent. Substance “unique domain of Lyn A (amino acids 1-66), Gal 4-activation domain fusion protein (from UniProt Q07014 1-66)” has a LacZ reporter (β-galactosidase) activity, fold over the negative control pACT-27-66-OOF of 3 fold and a strength of the interaction by β-galactosidase activity, relative to p53 and SV40 of 1 per cent.
